For 94 variants, protein stability index results are on record in the supplement of paper PMC10567573.

B1: PCDHGA10 (parent)
chain: FHELQMQVTASDSGDPPLSSNVSL
B2: ZBTB22 (parent)
chain: FSSSSQEAFAASAVGSGERRGGGP
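Also: lentivirally expressed fusions sorted by FACS into six bins by GFP to DsRed ratio, PSI derived from sequencing read proportions per bin multiplied by bin number.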

The variants in one data set derive from B1. The data set is described as follows: protein stability index of a GFP-peptide fusion (GPS, HEK-293T) (PSI 1-6); higher = more stable. To be noted: c terminus: a fixed tail appended.
Turning to FHELQMQVTASDSGDPPLSENVSL [S20E], the protein stability index stood at 2.75.
As for FHELQMRVTASDSGDPPLSSNVSL [Q7R], the protein stability index was determined as 1.99.
With FHELQMQVTASDSGDQPLSSNVSL [P16Q], the protein stability index is 2.08.
In the case of FHCLQMQVTASDSGDPPLSSNVSL [E3C], the protein stability index came out at 2.53.
Regarding FHELQMQVTASDSGDPYLSSNVSL [P17Y], the protein stability index was found to be 1.52.
The same measure, in the same setting: the figure for FHELQMQVTASDSGDPPNSSNVSL [L18N] is 2.34; for FHELQMQVTASDSGDPPASSNVSL [L18A] it is 2.5; for FHELQMQVTASDSGDPPCSSNVSL [L18C] it is 2.39.
Same read-out and setting: the same measure for FHELQMQVTASNSGDPPLSSNVSL [D12N]: 2.92.
Still for that read-out and setting: the same measure for FHELQMQVTASDSGDPPLSSKVSL [N21K]: 2.08.
FHELQMQVMASDSGDPPLSSNVSL [T9M]: the protein stability index worked out at 2.18.
Still for that read-out and setting: the figure for FHELQMQVQASDSGDPPLSSNVSL [T9Q] is 2.73; for FHELQMQVYASDSGDPPLSSNVSL [T9Y] it is 1.86; for FHELQMQVCASDSGDPPLSSNVSL [T9C] it is 1.93.
Same read-out and setting: the same measure for FHELQMQVTASDSGDPPLSSNVRL [S23R]: 2.51; for FHELRMQVTASDSGDPPLSSNVSL [Q5R]: 2.42.
Same read-out and setting: the figure for FHELGMQVTASDSGDPPLSSNVSL [Q5G] is 2.73; for FHELMMQVTASDSGDPPLSSNVSL [Q5M] it is 1.91.
For the variant FHELAMQVTASDSGDPPLSSNVSL [Q5A], the protein stability index was 2.26.
Regarding FHELQMQVTASDSGGPPLSSNVSL [D15G], the protein stability index stood at 1.97.
The same measure, in the same setting: the same measure for FHELQMQVTASDSGQPPLSSNVSL [D15Q]: 2.04.
The same measure, in the same setting: the same measure for FHELQMQVTASDSGDPPLNSNVSL [S19N]: 2.39.
The same measure, in the same setting: the figure for FHELQMQVTAADSGDPPLSSNVSL [S11A] is 2.22; for FHELQMQWTASDSGDPPLSSNVSL [V8W] it is 1.25; for FHELQMQDTASDSGDPPLSSNVSL [V8D] it is 4.05.
Regarding FHELQMQATASDSGDPPLSSNVSL [V8A], the protein stability index stood at 3.11.
The same measure, in the same setting: the same measure for FHELQMQHTASDSGDPPLSSNVSL [V8H]: 2.7.
As to FHELQMQVTDSDSGDPPLSSNVSL [A10D], the protein stability index was found to be 2.62.
Same read-out and setting: the figure for FFELQMQVTASDSGDPPLSSNVSL [H2F] is 2.21; for FVELQMQVTASDSGDPPLSSNVSL [H2V] it is 1.92; for LHELQMQVTASDSGDPPLSSNVSL [F1L] it is 4.5.
On the same count and under the same terms, the same measure for MHELQMQVTASDSGDPPLSSNVSL [F1M]: 4.06.
With FHELQSQVTASDSGDPPLSSNVSL [M6S], the protein stability index was 3.29.
For FHELQLQVTASDSGDPPLSSNVSL [M6L], the protein stability index is 2.58.
The same measure, in the same setting: the figure for FHELQCQVTASDSGDPPLSSNVSL [M6C] is 2.47; for FHEMQMQVTASDSGDPPLSSNVSL [L4M] it is 2.24.
The same measure, in the same setting: the same measure for FHECQMQVTASDSGDPPLSSNVSL [L4C]: 2.73.
With FHEFQMQVTASDSGDPPLSSNVSL [L4F], the protein stability index came to 1.39.
Still for that read-out and setting: the figure for FHELQMQVTASDVGDPPLSSNVSL [S13V] is 1.67; for FHELQMQVTASDNGDPPLSSNVSL [S13N] it is 2.43.
With FHELQMQVTASDEGDPPLSSNVSL [S13E], the protein stability index came to 2.69.
On the same count and under the same terms, the figure for FHELQMQVTASDMGDPPLSSNVSL [S13M] is 2.08; for FHELQMQVTASDSGDPPLSSNVSE [L24E] it is 3.07; for FHELQMQVTASDSGDPPLSSNVSK [L24K] it is 2.79.
On the same count and under the same terms, the same measure for FHELQMQVTASDSGDPPLSSNVSA [L24A]: 3.29.
Still for that read-out and setting: the same measure for FHELQMQVTASDSGDPPLSSNVSV [L24V]: 2.72; for FHELQMQVTASDSGDPPLSSNQSL [V22Q]: 2.43; for FHELQMQVTASDSGDPPLSSNNSL [V22N]: 2.77.

The next data set covers variants of B2. The data set is described as above. The note with it: c terminus: a fixed tail appended.
FSSSSQEAFAASAVGSGERRGYGP [G22Y]: the protein stability index was 2.57.
Regarding FSSSSQEAFAASAVGSGERRGRGP [G22R], the protein stability index is 3.25.
The same measure, in the same setting: the figure for FSSSSQEAFAASAVGSGERRGEGP [G22E] is 3.66; for FSSSSQEAFAASAVGSGERRGHGP [G22H] it is 3.83.
As to FSSSSQEAFAASAVGSGERRGLGP [G22L], the protein stability index stood at 3.65.
Consider FSSSSQEAFAASAVGSGERRGMGP [G22M], for which the protein stability index turned out to be 2.44.
Still for that read-out and setting: the same measure for FSSSSQEAFAASAVGSGERRGWGP [G22W]: 2.19.
For FSSSSQEAFAASAVGSGERRGVGP [G22V], the protein stability index came to 3.33.
For the variant FSSSSQEAFAASAVGSGERRGCGP [G22C], the protein stability index turned out to be 3.29.
The same measure, in the same setting: the figure for FSSSSQEAFAASAVGSGERRGIGP [G22I] is 3.3; for FSSSSQEAFAASAVGSGERRGKGP [G22K] it is 2.15; for FSSSSQEAFAASAVGSGERRGSGP [G22S] it is 3.33.
Still for that read-out and setting: the figure for FSSSSQEAFAASAVGSGERRGFGP [G22F] is 2.96; for FSSSSQEAFAASAVGSGERRGQGP [G22Q] it is 3.83; for FSSSSQEAFAASAVGSGERRGPGP [G22P] it is 3.7.
On the same count and under the same terms, the same measure for FSSSSQEAFAASAVGSGERRGAGP [G22A]: 3.6.
For the variant FSSSSQEAFAASAVGSGERRGNGP [G22N], the protein stability index turned out to be 3.55.
Consider FSSSSQEAFAASAVGSGERRGDGP [G22D], for which the protein stability index was found to be 3.11.
The same measure, in the same setting: the same measure for FSSSSQEAFAASAVGSGERRGTGP [G22T]: 3.72; for FSSSSQEAFAASAVGSGERRGGHP [G23H]: 3.39.
On the same count and under the same terms, the same measure for FSSSSQEAFAASAVGSGERRGGVP [G23V]: 3.03; for FSSSSQEAFAASAVGSGERRGGIP [G23I]: 2.74; for FSSSSQEAFAASAVGSGERRGGLP [G23L]: 2.94.
In the case of FSSSSQEAFAASAVGSGERRGGSP [G23S], the protein stability index came out at 3.25.
The same measure, in the same setting: the same measure for FSSSSQEAFAASAVGSGERRGGQP [G23Q]: 3.26; for FSSSSQEAFAASAVGSGERRGGDP [G23D]: 4.21.
The same measure, in the same setting: the figure for FSSSSQEAFAASAVGSGERRGGEP [G23E] is 3.53; for FSSSSQEAFAASAVGSGERRGGFP [G23F] it is 3.75; for FSSSSQEAFAASAVGSGERRGGAP [G23A] it is 3.57.
Same read-out and setting: the same measure for FSSSSQEAFAASAVGSGERRGGWP [G23W]: 1.43; for FSSSSQEAFAASAVGSGERRGGCP [G23C]: 3.46; for FSSSSQEAFAASAVGSGERRGGRP [G23R]: 3.48.
On to FSSSSQEAFAASAVGSGERRGGTP [G23T], for which the protein stability index amounted to 3.27.
With FSSSSQEAFAASAVGSGERRGGYP [G23Y], the protein stability index was determined as 2.87.
On the same count and under the same terms, the figure for FSSSSQEAFAASAVGSGERRGGPP [G23P] is 3.54; for FSSSSQEAFAASAVGSGERRGGNP [G23N] it is 3.4; for FSSSSQEAFAASAVGSGERRGGKP [G23K] it is 4.06.
The same measure, in the same setting: the same measure for FSSSSQEAFAASAVGSGERRGGMP [G23M]: 2.91; for FSSSSQEAFAASAVGSQERRGGGP [G17Q]: 3.31.
On the same count and under the same terms, the figure for FSSSSQEAFAASAVGSWERRGGGP [G17W] is 2.85; for FSSSSQEAFAASAVGSYERRGGGP [G17Y] it is 3.45; for FSSSSQEAFAASAVGSPERRGGGP [G17P] it is 3.22.
Turning to FSSSSQEAFAASAVGSSERRGGGP [G17S], the protein stability index was 3.39.
For the variant FSSSSQEAFAASAVGSTERRGGGP [G17T], the protein stability index was 3.08.
Still for that read-out and setting: the figure for FSSSSQEAFAASAVGSVERRGGGP [G17V] is 3.48; for FSSSSQEAFAASAVGSRERRGGGP [G17R] it is 3.23.
